# Source: the supplement of paper PMC7125110
# ± gives the standard error. Fewer inactive variants are shown than the library holds.
# B1: glmS ribozyme (parent)
# chain: AUAAAAGCGCCAGAACUACAGAAAUGUAGUUGACGAGGAGGAGGUUUAUCGAAUUUUCGGCGGAUGCCUCCAAA
# Variants of: B1
# Assay: self-cleavage kobs at 10000 uM GlcN6P; higher = faster cleavage; RNA array
# Conditions: with glucosamine-6-phosphate
# Outline: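 Tiles of sequenced MiSeq chips were imaged over ~14 h at 37 °C. On them, barcoded ribozyme variants had been transcribed in situ by E. coli RNA polymerase and were tracked via a hybridised Cy3 probe while glucosamine-6-phosphate (40 μM to 10 mM) in HEPES/KCl/Mg(OAc)2 buffer flowed in. Per-tile medians, normalised to baseline and to non-cleaving reference variants, were fit to one- or two-exponential decays for kobs, and weighted Michaelis–Menten fits gave kcat and KM.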
row,Variant,self-cleavage kobs at 10000 uM GlcN6P
1,AUAAAAGCGCCAGAACUACAGAAAUGUAGAUGACGAGGAGGAGGUUUAUCGAAUUUUCGGCGGAAGCCUCUAAA [U30A U65A C71U],0.000453 ± 8.5e-05 s⁻¹
2,AUAAACCCGCCAGAACUACAGAAAUGUAGUUGACAAGGAGGAGGUUUAUCGAAUUUUCGGCGGAUGCGUCCAAA [A6C G7C G35A C68G],< 1e-05 s⁻¹
3,AUAAAAGCGCCGGAAAUACAGAAAUGUAUUUGACGAGGAGGAGGUUUAUCGAAUUUUCGGCGGAUGCCUCCAAA [A12G C16A G29U],0.000458 ± 9.3e-05 s⁻¹
4,AUAAAAGCGCCAGAACUACAGAAAUGUAGUUAACGAGGAGGAGGUUUAUCGGAUUUUCGGCGGAUGCCUACAAA [G32A A52G C70A],5.69e-05 ± 2.3e-05 s⁻¹
5,AUAAAAGCGCCAGAACUACAGAAAUGUACUUGACGAGGAGGAGGUUUAAAGAAUUUUCGGCGGAUGCCUCCAAA [G29C U49A C50A],< 1e-05 s⁻¹
6,AUAAAAGCGCCAGAACUACAGAAAUGUAGUUGACGAGGAGGAGGUUUAUCGAAUUUUCCGCGCAUGCCUCCAAA [G59C G63C],< 1e-05 s⁻¹
7,AUAAAAGCGCCAGUACUACAGAAAUGUAGUUGACGCGGAGGAGGUUUGUCGAAUUUUCGGUGGAUGCCUCCAAA [A14U A36C A48G C61U],< 1e-05 s⁻¹
8,AUAAAUGCGCCUGAACUACAGAAAUGUAGUUGACGAGGAGGAGGUUUAUCGAAUUUUCGGCGGGUGCCUCCAAA [A6U A12U A64G],0.000171 ± 4.1e-05 s⁻¹
9,AUAAAAGCGCCAGAAUUACAGAAAUGUAGUUGACGAGAAGGAGGUUUAUCGGAUUUUCGGCGGAUGCCUCGAAA [C16U G38A A52G C71G],< 1e-05 s⁻¹
10,AUAAAAGCGGCAGAACUACAGAAAUGUAGUUGAAGAGGAGGAGGUUUAUCGAAUUUUCGGCGGAUGGCUCCAAA [C10G C34A C67G],0.00066 ± 0.00026 s⁻¹
11,AUAAAAGCGCCAGAACUACAGAAAUGUAGUUGACGGGGAGGAGGUUUAUCGAAUUUUCGGCGGCGGCCUCCAAA [A36G A64C U65G],< 1e-05 s⁻¹
12,AUAAAAGCGCCAGAACUACAGAAAUGUAGUUGACGUGGAGGAGGUUUAUCUAAUUUUCGGCGGAUGCGUCCAAA [A36U G51U C68G],4.33e-05 ± 1.7e-05 s⁻¹
13,AUAAAAGCGCCAGAACUACAGAAAUGUAGUUGACGAGGAGGAGGUUUAUCGAAUGUUCCGCGGAUGCCUACAAA [U55G G59C C70A],0.000104 ± 2.7e-05 s⁻¹
14,AUAAAAGCGCCAGCUCUACAGAAAUGUAGUUCACGAGGAGGAGGUUUAUCGAAUUUUUGGCGGAUGCCUCCAAA [A14C A15U G32C C58U],3.19e-05 ± 1.1e-05 s⁻¹
15,AUAAAAGCGCCAUAACUACAGAAAUGUAGUUGACGAGCAGGAGGUUUAUCGAAUUUUUGGUGGAUGCCUCCAAA [G13U G38C C58U C61U],< 1e-05 s⁻¹
16,AUAAAAGCGCCAGAACUACAGAAAUGUAGUUGACGAGGAGGAGGUUUAUGGAAUUUUCGGCGGAUGUGUCGAAA [C50G C67U C68G C71G],0.000108 ± 2.8e-05 s⁻¹
17,AUAAAAGCGCCAGAACUACAGAAAUGUAGUUGACGACGAGGAGGUUUAUCGAAUUUUCGGCGGCUGGCUCCAAA [G37C A64C C67G],< 1e-05 s⁻¹
18,AUAAAAGCGCCAGAACUACAGAAAUGUAGUUAACGAGGAGGAGGUUUAUCGAAUGUUCGGCGGAGUCCUGCAAA [G32A U55G U65G G66U C70G],3.69e-05 ± 1.7e-05 s⁻¹
19,AUAAAAGCGCCACAACUACAGAAAUGUAGUUGACGAGGAGGAGGUUAAUCGAAUUUUCGGCGGAUGCCUCCAAA [G13C U47A],7.19e-05 ± 9.5e-06 s⁻¹

row,Variant,self-cleavage kobs at 10000 uM GlcN6P
1,AUAAAAGAGCCAGAAUUACAGAAAUGUAGUCGACGAUGUGGUGGUUUUUCGAAUUUUCGGCGGAUGCCUCCAAA [C8A C16U U31C G37U A39U A42U A48U],< 1e-05 s⁻¹
2,AUAAAAGCGCAAGAACUACAGAAAUGUAGUUGACGAGGAGGAGGUUUAUCGAAUUUUCGGCGGAUACCUCCAAA [C11A G66A],6.59e-05 ± 1.3e-05 s⁻¹
3,AUAAAAGCGCCACAUCUACAGAAAUGUAGUUGACGAGGAGGAGGUUUAUCGAAUUUUGGGCGGAUGCCUCCAAA [G13C A15U C58G],0.000104 ± 1.7e-05 s⁻¹
4,AUAAAAGCGCCAGAAAUACAGAAAUGUAGUUGACCAGGAGGAGGUUUAUCGAAUUUUCGGCGGAGGCCUCCAAA [C16A G35C U65G],< 1e-05 s⁻¹
5,AUAAAAGCGCCAGAACUACAGAAAUGUAGUUGUCGAGGAGUAGGUUUAACGUAUUUUCGGCGGAUGCCACCAAA [A33U G41U U49A A52U U69A],< 1e-05 s⁻¹
6,AUAAACGCGCCAGAACUACAGAAAUGUAGUCGACGAGGAGGAGGAUUAUCGAAUUUGCGGCGGAUGCCUCCAAA [A6C U31C U45A U57G],< 1e-05 s⁻¹
7,AUAAAAGCGCCAGAACUACAGAAAUGUAGUUGACGAGGUGGAAGUUCAUCGAAUUUUCAGCGGAUGUCUCCAAA [A39U G43A U47C G59A C67U],< 1e-05 s⁻¹
8,AUAAAAGCGCCAGACCUACAGAAAUGUAGUUGACGAGGAGGAGGUUUAUCGAUUUUUCGGCGGAUGCCUCGAAA [A15C A53U C71G],0.000151 ± 3.6e-05 s⁻¹
9,AUAAAAGCGCCAGAGUUACAGAAAUGUAGUUGACGAGGUGGAGGUUUAUCGAAUUUUCGGCGGAUGCCUCCAAA [A15G C16U A39U],0.00651 ± 0.0013 s⁻¹
10,AUAAAAGUGCCAGAACUACAGAAAUGUAGUUGACGAGGAGGAGGUUUAUCGAAUUUACGGCGGAUGCCGCCAAA [C8U U57A U69G],0.000575 ± 0.00016 s⁻¹
11,AUAAAAGCGCCAGAACUACAGAAAUGUAGUGGACGAGGAGGAGCUUUAUCGAAUUUUCGGCGGAUGCCUCCAAA [U31G G44C],4.96e-05 ± 1.3e-05 s⁻¹
12,AUAAAAGCGCCAGAAAUACAGAAAUGUAGUUGACGAGGAGGAGGUUUAUAGAAUUUUCGGCGGAGGCCUCCAAA [C16A C50A U65G],< 1e-05 s⁻¹
13,AUAAAAGCGUCACAACUACAGAAAUGUAGUUGACGAGGAGGAGGUUUAUCAAUUUUUCGGCGGGUACCUCCAAA [C10U G13C G51A A53U A64G G66A],< 1e-05 s⁻¹
14,AUAAAAGCGCCAGAACUACAGAAAUGUAGUUGAUGAGGAGGAUGUUUAUCGAAUUUGCGGCGGAGGCCUCCAAA [C34U G43U U57G U65G],< 1e-05 s⁻¹
15,AUAAAAGCGCCAGAACUACAGAAAUGUAGUUGACGAGGAGGAGGAUUAUCGAAUUUUCGGCAGAUGCCUCCAAA [U45A G62A],< 1e-05 s⁻¹
16,AUAAAAGCGCCAGAACUACAGAAAUGUAGUUGACGAGGAGGAGGUUUAUCGAAUUUUCGCCGGGGGCCUCCAAA [G60C A64G U65G],< 1e-05 s⁻¹
17,AUAAAAGCGCCAGAACUACAGAAAUGUAGUUGACCAUGAGGAGGUUUAUCGAAUUUUCGGCGGAUGCGUCCAAA [G35C G37U C68G],7.56e-05 ± 2.4e-05 s⁻¹
18,AUAAAAGCGCCAGAAUUACAGAAAUGUAUUUCACGAGGAGGAGGUUUAUCGAAUUUUCGGCGGAUGCCUCCAAA [C16U G29U G32C],8.38e-05 ± 1.7e-05 s⁻¹
